Laboratory results reported in publication PMC9328939, “A Randomized Double‐Blind Placebo‐Controlled First‐In‐Human Phase 1 Trial of TransCon PTH in Healthy Adults” (Journal of Bone and Mineral Research, 2020).

Experiments:
[1] = Pharmacokinetics of Free PTH after a single s.c. dose of TransCon PTH (SAD cohorts); format: in vivo, human; settings: for Free PTH tmax: median (min-max); for Free PTH Cmax / Free PTH t½ / Free PTH AUC0-t: geometric mean (CV%)
Method: Subjects attended a screening visit; those who met eligibility criteria were randomly assigned to a SAD or MAD cohort (n = 10/cohort; eight active and two placebo) and received a single or multiple dose(s) of TransCon PTH, respectively, via a syringe and 31G 8‐mm needle s.c. to the abdomen. Single TransCon PTH doses ranged from 3.5 to 124 μg PTH(1‐34) (containing PTH(1‐34) [Bachem AG, Bubendorf, Switzerland], identical to the first 34 amino acids of rhPTH). Multiple TransCon PTH doses administered daily for 10 days ranged from 3.5 to 24 μg PTH(1‐34)/day.
The primary PK endpoints therefore included Free PTH (defined as the sum of Free PTH(1‐34) and Free PTH(1‐33)) as well as TransCon PTH.
The PK samples were analyzed by PRA Health Sciences (Assens, the Netherlands); Free PTH was quantified using protein precipitation, liquid‐liquid extraction, and solid‐phase extraction followed by ultra high‐performance liquid chromatography with tandem mass spectrometry detection measuring the two peptides, PTH(1‐34) and PTH(1‐33), by collection of both transitions simultaneously. Free PTH was calculated only if samples contained quantifiable levels of both Free PTH(1‐34) and Free PTH(1‐33); ie, above 1.40 and 0.958 pg/mL for Free PTH(1‐34) and Free PTH(1‐33), respectively. No lower limit of quantification was calculated for Free PTH because the ratio between Free PTH(1‐34) and Free PTH(1‐33) is not constant.
The PK parameters were calculated using Phoenix WinNonlin, version 6.4 (Certara USA, Inc., Princeton, NJ, USA). For Free PTH, tmax was defined as the time to maximum observed concentration and Cmax was defined as the maximum observed concentration. […] Peak‐to‐trough was calculated as the ratio of Cmax to C24h at steady‐state.

healthy adults [2] = assay: Pharmacodynamics: fractional excretion of calcium (FECa); format: in vivo, human; settings: despite mild hypercalcemia, normal limits approximately 0.4% to 2%
Method: Twice‐daily 12‐hour urine samples (including calcium, phosphorus, magnesium, and creatinine) were also collected. In MAD cohorts, serum samples collected from TransCon PTH‐treated and placebo‐treated subjects predose and postdose on day 14 were analyzed for anti‐PTH binding antibodies by BioAgilytix (Durham, NC, USA) using an electrochemiluminescence bridging assay. Samples were analyzed using a multitiered approach consisting of a screening assay and a confirmatory assay.

healthy adults [3] = assay: Pharmacodynamics: serum phosphate (sP); format: in vivo, human; settings: MAD cohorts, near steady-state (days 8 to 10); linear regression on dose, p = .0430
Method: (§1) All statistical analyses were performed using SAS 9.3 or higher (SAS Institute, Inc., Cary, NC, USA). Summary statistics were reported for continuous data, including mean, standard deviation, standard error, median, minimum, and maximum, whereas number and percentage of subjects within treatment groups were reported for categorical data. For sP and TMP/GFR, a linear regression model was performed for the change from baseline, with dose and baseline as independent variables at near steady‐state. Near steady‐state was defined as the average of predose values on day 8, 9, and 10. Dose was defined as a continuous variable where placebo was considered zero.

healthy adults [4] = assay: Pharmacodynamics: renal tubular maximum reabsorption of phosphate/GFR (TMP/GFR); format: in vivo, human; settings: MAD cohorts, near steady-state (days 8 to 10); linear regression on dose, p = .0022
Method: The ratio, TMP/GFR is based on sP, urine phosphate (uP), serum creatinine (sCr), and urine creatinine (uCr) and was calculated as follows[18]: (2) TMP/GFR=sP–uPxsCr/uCr
as §1

healthy adults [5] = assay: Pharmacodynamics: 1,25-dihydroxyvitamin D; format: in vivo, human; settings: healthy subjects; data not shown
healthy adults [6] = assay: Pharmacodynamics: bone turnover markers (serum BSAP, P1NP, CTx; urine NTx); format: in vivo, human; settings: MAD
Method: The PD endpoints included albumin‐adjusted sCa, fractional excretion of calcium, sP, renal tubular maximum reabsorption of phosphate/glomerular filtration rate (TMP/GFR), intact endogenous PTH(1‐84), osteoblastic bone formation markers (serum bone‐specific alkaline phosphatase [BSAP] and P1NP), osteoclastic bone resorption markers (urine NTx and serum CTx), sMg, and 1,25‐dihydroxyvitamin D. PK samples were collected predose and at regular intervals postdose through 96 hours for the SAD cohorts and through day14 for the MAD cohorts.

healthy adults [7] = assay: Safety and tolerability: adverse events in SAD and MAD cohorts; settings: for Any AE (%) / Any SAE (%) / Any drug-related AE (%) / Any moderate or severe AE (%): number of subjects (% of cohort); for Dizziness, light-headedness (including postural/orthostatic dizziness, syncope, presyncope) (%) / Tachycardia/palpitations (%): at least possibly related, number of subjects (%)
Method: Subjects attended a screening visit; those who met eligibility criteria were randomly assigned to a SAD or MAD cohort (n = 10/cohort; eight active and two placebo) and received a single or multiple dose(s) of TransCon PTH, respectively, via a syringe and 31G 8‐mm needle s.c. to the abdomen. […] Multiple TransCon PTH doses administered daily for 10 days ranged from 3.5 to 24 μg PTH(1‐34)/day. Throughout drug administration and for 4 days following the final dose, subjects remained housed for laboratory tests and safety monitoring.
At screening, demographic information, medical history, and concomitant medications, vital signs with height and weight, hematology, blood chemistry (including sCa, sP, and sMg), intact endogenous PTH(1‐84), 1,25‐dihydroxyvitamin D, and urine samples were collected. In addition, a limited physical examination and electrocardiogram (ECG) were performed.
Via regular vital sign checks, physical examinations, and safety laboratory tests, subjects were also monitored for adverse events (AEs) throughout the trial, including injection site reactions (erythema, ecchymosis, edema, pruritus, and pain).

[8] = single s.c. 72 μg PTH(1-34), n = 7
[9] = single s.c. 100 μg PTH(1-34), n = 8
[10] = single s.c. 124 μg PTH(1-34), n = 8
[11] = MAD cohorts administered TransCon PTH (n = 50)
[12] = MAD, 3.5 μg/day s.c. x 10 days, n = 8
[13] = MAD, 3.5 μg/day x 10 days, n = 8
[14] = MAD, 7 μg/day s.c. x 10 days, n = 8
[15] = MAD, 12 μg/day s.c. x 10 days, n = 10
[16] = MAD, 16 μg/day s.c. x 10 days, n = 8
[17] = MAD, 16 μg/day x 10 days, n = 8
[18] = MAD, 20 μg/day s.c. x 10 days, n = 8
[19] = MAD, 20 μg/day x 10 days, n = 8
[20] = MAD, 24 μg/day s.c. x 10 days, n = 8

Substance: TransCon PTH: long-acting, essentially inactive prodrug: PTH(1-34) transiently bound to an inert 40 kDa mPEG carrier via a proprietary autocleaving linker
- Free PTH tmax ([1]; single s.c. 48 μg PTH(1-34), healthy adults, n = 7): 8.0 (4.0–24.0) (n = 7) h
- Free PTH Cmax ([1]; single s.c. 48 μg PTH(1-34), healthy adults, plasma, UHPLC-MS/MS, n = 7): 6.61 (19.7) (n = 7) pg/mL
- Free PTH t½ ([1]; single s.c. 72 μg PTH(1-34), n = 5): 54.4 (18.9) (n = 5) h
- Free PTH Cmax [1, 8]: 7.67 (28.5) (n = 7) pg/mL
- Free PTH AUC0-t ([1]; single s.c. 72 μg PTH(1-34), healthy adults, plasma, UHPLC-MS/MS, n = 5): 420 (20.3) (n = 5) h*pg/mL
- Free PTH tmax [1, 8]: 4.0 (4.0–60.3) (n = 7) h
- Free PTH t½ ([1]; single s.c. 100 μg PTH(1-34), n = 7): 51.0 (32.4) (n = 7) h
- Free PTH AUC0-t [1, 9]: 594 (17.3) (n = 8) h*pg/mL
- Free PTH Cmax [1, 9]: 12.9 (11.7) (n = 8) pg/mL
- Free PTH tmax [1, 9]: 6.0 (4.0–8.0) (n = 8) h
- Free PTH t½ ([1]; single s.c. 124 μg PTH(1-34), n = 7): 55.7 (37.1) (n = 7) h
- Free PTH AUC0-t [1, 10]: 684 (36.9) (n = 8) h*pg/mL
- Free PTH Cmax [1, 10]: 13.8 (45.5) (n = 8) pg/mL
- Free PTH tmax [1, 10]: 4.0 (4.0–60.0) (n = 8) h
- FECa (spot) (healthy adults [2]; MAD cohorts, daily doses x 10 days): remained essentially within normal limits
- FECa (healthy adults [2]; SAD cohorts, data not shown): remained essentially within normal limits
- change in serum phosphate (sP) from baseline (healthy adults [3]): significant dose‐dependent decrease
- change in TMP/GFR from baseline (healthy adults [4]): significant dose‐dependent decrease
- 1,25-dihydroxyvitamin D levels (healthy adults [5]): did not change significantly
- serum BSAP (osteoblastic bone formation marker) (healthy adults [6]; 10 days of administration, compared to placebo): neither the osteoblastic bone formation marker, BSAP (Fig. 8) or P1NP (data not shown), increased
- P1NP (osteoblastic bone formation marker) (healthy adults [6]; 10 days of administration, compared to placebo, data not shown): neither the osteoblastic bone formation marker, BSAP (Fig. 8) or P1NP (data not shown), increased
- time course of serum CTx levels (healthy adults [6]; Free PTH at steady-state until at least day 11): declined from day 8 to baseline by day 13
- serum CTx (osteoclastic bone resorption marker) (healthy adults [6]; over 10 days of administration, compared to placebo): increased modestly
- urine NTx (osteoclastic bone resorption marker) (healthy adults [6]; over 10 days, data not shown): no consistent increase
- treatment-emergent AE: catheter site phlebitis (healthy adults [7]; [11]): 8%
- treatment-emergent AE: dizziness (healthy adults [7]; [11]): 10%
- treatment-emergent AE: headache (healthy adults [7]; [11]): 12%
- treatment-emergent AE: musculoskeletal pain (healthy adults [7]; [11]): 6%
- treatment-emergent AE: palpitations (healthy adults [7]; [11]): 8%
- treatment-emergent AE: postural dizziness (healthy adults [7]; [11]): 6%
- treatment-emergent AE: presyncope (healthy adults [7]; [11]): 6%
- Any AE (%) (healthy adults [7]; [12]): 6 (75.0) %
- Any SAE (%) (healthy adults [7]; [12]): 0 (0) %
- Any drug-related AE (%) (healthy adults [7]; [12]): 1 (12.5) %
- Any moderate or severe AE (%) (healthy adults [7]; [12]): 2 (25.0) %
- Dizziness, light-headedness (including postural/orthostatic dizziness, syncope, presyncope) (%) (healthy adults [7]; [13]): 1 (12.5) %
- Tachycardia/palpitations (%) (healthy adults [7]; [13]): 1 (12.5) %
- Any AE (%) (healthy adults [7]; [14]): 6 (75.0) %
- Any SAE (%) (healthy adults [7]; [14]): 0 (0) %
- Any drug-related AE (%) (healthy adults [7]; [14]): 2 (25.0) %
- Any moderate or severe AE (%) (healthy adults [7]; [14]): 3 (37.5) %
- Dizziness, light-headedness (including postural/orthostatic dizziness, syncope, presyncope) (%) (healthy adults [7]; MAD, 7 μg/day x 10 days, n = 8): 1 (12.5) %
- Tachycardia/palpitations (%) (healthy adults [7]; MAD, 7 μg/day x 10 days, n = 8): 0 (0.0) %
- Any AE (%) (healthy adults [7]; [15]): 7 (70.0) %
- Any SAE (%) (healthy adults [7]; [15]): 1 (10.0) %
- Any drug-related AE (%) (healthy adults [7]; [15]): 3 (30.0) %
- Any moderate or severe AE (%) (healthy adults [7]; [15]): 2 (20.0) %
- Tachycardia/palpitations (%) (healthy adults [7]; MAD, 12 μg/day x 10 days, n = 10): 0 (0.0) %
- Any AE (%) (healthy adults [7]; [16]): 4 (50.0) %
- Any SAE (%) (healthy adults [7]; [16]): 0 (0) %
- Any drug-related AE (%) (healthy adults [7]; [16]): 2 (25.0) %
- Any moderate or severe AE (%) (healthy adults [7]; [16]): 1 (12.5) %
- Dizziness, light-headedness (including postural/orthostatic dizziness, syncope, presyncope) (%) (healthy adults [7]; [17]): 0 (0.0) %
- Tachycardia/palpitations (%) (healthy adults [7]; [17]): 0 (0.0) %
- Any AE (%) (healthy adults [7]; [18]): 3 (37.5) %
- Any SAE (%) (healthy adults [7]; [18]): 0 (0) %
- Any drug-related AE (%) (healthy adults [7]; [18]): 2 (25.0) %
- Any moderate or severe AE (%) (healthy adults [7]; [18]): 1 (12.5) %
- Dizziness, light-headedness (including postural/orthostatic dizziness, syncope, presyncope) (%) (healthy adults [7]; [19]): 0 (0.0) %
- Tachycardia/palpitations (%) (healthy adults [7]; [19]): 1 (12.5) %
- subjects reporting vasodilatory or potentially vasodilatory AEs (healthy adults [7]; MAD, 24 μg PTH(1-34)/day cohort, four of eight, placebo two of two (100%)): 50%
- albumin-adjusted sCa in a subject with symptomatic hypercalcemia (healthy adults [7]; MAD, 24 μg PTH(1-34)/day, one of three males, discontinued dosing after the sixth dose): 11.68 mg/dL
- albumin-adjusted sCa in an asymptomatic subject on day 11 (healthy adults [7]; MAD, 24 μg PTH(1-34)/day, single subject): 11.76 mg/dL
- Any AE (%) (healthy adults [7]; [20]): 7 (87.5) %
- Any SAE (%) (healthy adults [7]; [20]): 0 (0) %
- Any drug-related AE (%) (healthy adults [7]; [20]): 6 (75.0) %
